Results reported in US8273705B2, “Conversion of apoptotic proteins” (The Burnham Institute, priority 2002, dated 2012).

B1: TR3/ΔDBD: TR3 mutant with the DNA binding domain removed; used as GFP fusion (protein)
chain: MPCIQAQYGTPAPSPGPRDHLASDPLTPEFIKPTMDLASPEAAPAAPTALPSFSTFMDGYTGEFDTFLYQLPGTVQPCSSASSSASSTSSSSATSPASASFKFEDFQVYGCYPGPLSGPVDEALSSSGSDYYGSPCSAPSPSTPSFQPPQLSPWDGSFGHFSPSQTYLVLHRLQCARGFGDWIDSILAFSRSLHSLLVDVPAFACLSALVLITDRHGLQEPRRVEELQNRIASCLKEHVAAVAGEPQPASCLSRLLGKLPELRTLCTQGLQRIFYLKLEDLVPPPPIIDKIFMDTLPF
modifications: left off: large carriers; small tags and cut ends
notes: used as GFP fusion
B2: TR3/ΔDBD/Δ471-488: TR3/ΔDBD with eighteen amino acids from 471 to 488 in the DC1 region deleted (protein)
chain: MPCIQAQYGTPAPSPGPRDHLASDPLTPEFIKPTMDLASPEAAPAAPTALPSFSTFMDGYTGEFDTFLYQLPGTVQPCSSASSSASSTSSSSATSPASASFKFEDFQVYGCYPGPLSGPVDEALSSSGSDYYGSPCSAPSPSTPSFQPPQLSPWDGSFGHFSPSQTYLVLFSRSLHSLLVDVPAFACLSALVLITDRHGLQEPRRVEELQNRIASCLKEHVAAVAGEPQPASCLSRLLGKLPELRTLCTQGLQRIFYLKLEDLVPPPPIIDKIFMDTLPF
modifications: left off: large carriers; small tags and cut ends
notes: TR3/ΔDBD with eighteen amino acids from 471 to 488 in the DC1 region deleted

Experiments:
Type in all cases: cell-based, human
[1] = test system: 293T cells; experiment: Confocal microscopy of mitochondrial targeting in 293T cells
Experimental: (§1) Subcellular localization assays—Cells were seeded onto cover-slips in 6-well plates overnight, then transiently transfected with GFP-fusion expression plasmids. After 16 hours, cells were washed with PBS and fixed in 4% paraformaldehyde. For mitochondrial staining, cells were then incubated with anti-Hsp60 goat IgG (Santa Cruz, USA), followed by anti-goat IgG conjugated with Cy3 (Sigma). For cyt c staining, cells were incubated with monoclonal anti-cyt c IgG (PharMingen), followed by anti-mouse IgG conjugated with Cy5 (Amersham). Fluorescent images were collected and analyzed using a MRC-1024 MP laser-scanning confocal microscope (Bio-Rad). Subcellular fractionation assays were performed as described (Li, et al. 2000 Science 289:1159-1164). Briefly, cells (1×10^7 cells) suspended in 0.5 ml hypotonic buffer (5 mM Tris-HCl, pH 7.4, 5 mM KCl, 1.5 mM MgCl2, 0.1 mM EGTA, pH 8.0, and 1 mM DTT) were homogenized and cell extracts were centrifuged at 500×g for 5 min. The resulting supernatant was centrifuged at 10,000×g for 30 min at 4° C. to obtain the HM fraction. HM fraction was resuspended in 100 μl lysis buffer (10 mM Tris, pH 7.4, 150 mM NaCl, 1% Triton X-100, 5 mM EDTA, pH 8.0) for immunoblotting analysis.
A. confocal microscopy—First an experiment was performed to determine whether the deletion mutant TR3/ΔDBD targets mitochondria via its interaction with Bcl-2. In confocal microscopy analysis, GFP-TR3/ΔDBD and Bcl-2 were transfected into 293T cells alone or together. […] Bcl-2, TR3/ΔDBD and mitochondria (Hsp60) were visualized using confocal microscopy and the three images were overlaid.

[2] = test system: 293T cells; experiment: DAPI apoptosis assay in 293T cells
Experimental: Apoptosis assays—For nuclear morphological change analysis, cells were trypsinized, washed with PBS, fixed with 3.7% paraformaldehyde, and stained with DAPI (4,6-diamidino-2-phenylindole) (50 μg/ml) to visualize the nuclei by UV-microscopy. The percentages of apoptotic cells were determined by counting 300 GFP-positive cells, scoring cells having nuclear fragmentation and/or chromatin condensation.
DAPI staining was used to study the apoptotic effect of TR3/Bcl-2 interaction. 293T cells were transfected with GFP-TR3/ΔDBD alone or together with Bcl-2. After 36 h, nuclei were stained by DAPI and nuclear fragmentation and chromatin condensation were identified. Cells were also stained with anti-Bcl-2 antibody, followed by TRITC-conjugated secondary antibody (Sigma). Bcl-2 and GFP-ΔDBD expression and nuclear morphology were visualized by fluorescence microscopy, and the two images were overlaid. […] But, when Bcl-2 was cotransfected, a significant amount of transfected cells underwent apoptosis. For example, approximately 4% of cells transfected with either TR3/ΔDBD or Bcl-2 were apoptotic, compared to 35% of cell transfected with both. […] Cotransfection of Bcl-2, however, prevented BAX-induced apoptosis in these cells (see FIG. 4). The effect of Bcl-2 on apoptotic potential of TR3/ΔDBD in lung cancer and breast cancer cells was also investigated.
To characterize the pro-apoptotic mechanism of Bcl-2 in the setting of TR3-induced apoptosis, various TR3 mutants and Bcl-2 mutants were co-expressed in HEK293T cells. TR3 mutants were transfected into 293T cells together with or without Bcl-2 expression vector or with Bcl-2 mutants. After 36 h, nuclei were stained by DAPI. Cells displaying nuclear condensation or fragmentation were scored.
The role of various Bcl-2 mutants in mediating apoptosis induction by TR3 was next studied. […] The hydrophobic cleft of Bcl-2 is involved in its anti-apoptotic effect through its interaction with BH3 domain of pro-apoptotic molecules (Reed 1997 Semin Hematol 34:9-19; Reed 1997 Nature 387:773-776). To investigate whether the BH3 domain-binding motif of Bcl-2 is also involved in its apoptotic effect, various Bcl-2 mutants including Y108K Bcl-2, with a mutation in the BH3 domain-binding cleft, L137A, and G145A (all with impaired interaction with bax), were cotransfected together with TR3/ΔDBD. […] Bcl-2 mutations (Y108K, L137A, G145A) that impaired its interaction with Bax, abolished the Bcl-2 inhibitory effect on Bax-induced apoptosis, consistent with previous observations that the hydrophobic cleft of Bcl-2 is essential for its anti-apoptotic effect. […] Thus, an intact BH3 domain-binding motif in Bcl-2 is involved in its pro-apoptotic effect. In contrast to the inhibitory effect of Bcl-2 on Bax-induced apoptosis TR3/ΔDBD-induced apoptosis was augmented by co-expression of Bcl-2 in HEK293T cells.
Mitochondrial targeting of TR3 has been previously identified as being involved in its apoptotic effect. To study whether mitochondrial localization of the TR3/ΔDBD/Bcl-2 complex was involved in their apoptotic effect, TR3/ΔDBD was cotransfected with Bcl-2/ATM, a Bcl-2 lacking its transmembrane domain. […] Thus, mitochondrial localization of TR3/ΔDBD/Bcl-2 complex is involved in this apoptotic effect.

[3] = test system: HEK293T cells; experiment: Subcellular fractionation, heavy membrane (HM) fractions of HEK293T cells
Experimental: as §1, with “analysis. […]” for “analysis.”

[4] = 293T, co-expressed with Bcl-2, 36 h, DAPI

Molecule	subcellular distribution ([1]; coexpressed with Bcl-2)	subcellular distribution ([1]; expressed alone)	apoptosis [2, 4]	apoptosis ([2]; 293T, coexpression with Bcl-2/ΔTM)	apoptosis ([2]; 293T, cotransfected with Bcl-2 Y108K)	apoptotic cells ([2]; 293T, transfected alone, 36 h, DAPI)	apoptotic cells ([2]; 293T, transfected with both TR3/ΔDBD and Bcl-2, 36 h, DAPI)	apoptosis ([2]; HEK293T, co-expression with Bcl-2/ΔLoop)	apoptosis ([2]; co-expressed with Bcl-2 L137A and G145A)	apoptosis ([2]; co-expressed with Bcl-2 mutants lacking TM, BH1, BH2 or BH3 domain)	accumulation in HM fraction ([3]; presence of Bcl-2)	colocalization with mitochondria [1]	accumulation in HM fraction ([3]; either in the absence or presence of Bcl-2)
B1	distribution pattern overlaid extensively with that of Hsp60	diffuse distribution pattern	augmented	did not result in apoptosis	unable to induce apoptosis	approximately 4%	35%	did not induce cell death	retained the ability to promote apoptosis	incapable of inducing apoptosis	accumulated in the HM fraction		
B2			failed to confer the apoptotic potential of Bcl-2									failed to colocalize with mitochondria	not found in the HM fraction
